System: MS2 coat protein
Test: apparent KD of MS2 coat protein; designed switch direction (-1 OFF switch, 1 ON switch): -1; higher = weaker reporter binding
Outline: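 An oligonucleotide input, 200 uM small-molecule ligand, or no input was present during titration of SNAP-549-labelled MS2 coat protein, which was doubled from 0.7 or 1.5 nM to 3 µM. Designed RNA switches had been transcribed on Illumina chips by stalled E. coli RNA polymerase. Apparent KD per design is the median over clusters of curves fitted to normalised cluster fluorescence.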

[1] = input ligand: microRNA oligo, concentration not stated
[2] = Eterna round: R95, input ligand: microRNA oligo, concentration not stated
[3] = Eterna round: R95, input ligand: FMN 200 uM
[4] = Eterna round: R95, input ligand: none

Sequence | apparent KD of MS2 coat protein (input ligand: FMN 200 uM) | apparent KD of MS2 coat protein [1] | apparent KD of MS2 coat protein (input ligand: none) | apparent KD of MS2 coat protein [2] | apparent KD of MS2 coat protein [3] | apparent KD of MS2 coat protein [4]
AAGAAGCUGAGAGGAUAUGGAGCCGAAACGGAGCUAGAAGGCUUUGCAGAAAGACAUGAGGAUCACCCAUGUUCAUGUAGAGAA [AK ExNG1-1.3] (Eterna round: R96, puzzle: Exclusion NG 1) | 15.2 nM | 12.6 nM | 18.4 nM |  |  | 
AGCCACAGAGGAUAUACAUACAUCCAGUAGUUAAGAAUACAACAUGAGGAUCACCCAUGUAGAAGGCUGUGGCA [Omei Ex2 BD B9] (Eterna round: R97, puzzle: Exclusion 2) | 348 nM |  | 103 nM |  |  | 
UUUCCUUGUGUGAGGAUAUACUUGUUUGUGUUUUUGUAGAAGGCACAUGAGGAUCACCCAUGUACUCUUUCCUG [JR_BME4_Sub023] (puzzle: Brourd's mod of Exclusion 4) |  |  |  | 34.2 nM |  | 
GAGAAGGUAGGAUAUACGAAAAAAAAGGGUAGAAAAAAAACACAUGAGGAUCACCCAUGUAGAAGGACCAAAAG [salish99_ex2_r3_035] (puzzle: Exclusion 2) |  |  |  | 24.6 nM | 68.9 nM | 28 nM
UUUAACAAGCCAGAUCCUCACAUGAGGAUCACCCAUGUGCUCGUCUGAUUUUGUACUAUCAUGUGAGUGAUAGUAUU [Level Boss var2-05] (puzzle: Sensor v3, turn-off variant 1) |  |  |  | 15.2 nM | 165 nM | 181 nM
AGAUCACAUGAGGAUCACCCAUGUGAGGAUAUGCUUAAACCGUUGAACCCGGUUUGAGGCAGAAGGUGCGAGGG [Eternabot (L2) Solution 37] (Eterna round: R97, puzzle: Exclusion 1) | 29.9 nM |  | 21.3 nM |  |  | 
UGAGAACAUGAGGAUCACCCAUGUAAGGAUAUGCGAAGAGUUCGGAGAGGUUGAGGAGGCAGAAGGUACGGGAG [JR_Exclu1_Sub044] (puzzle: Exclusion 1) |  |  |  | 32.5 nM | 37.5 nM | 49.8 nM
AAUCAGUGUGUGAGGAUAUUGGUGGAGUGACUUAUUAAGAAGGCACAUGAGGAUCACCCAUGUGGGAAGUCAGG [JR_BMEx4_Sub017] (Eterna round: R97, puzzle: Brourd's mod of Exclusion 4) | 13.9 nM |  | 14.8 nM |  |  | 
GAAAACGCAGAGGAUAUAUCAGAUCAAAGCUGCAUAGAAGGCUGCACAUGAGGAUCACCCAUGUGGUCUUUAAA [jl-ex6-4.00 ViennaUCT mod] (Eterna round: R97, puzzle: Exclusion 6) | 218 nM |  | 22 nM |  |  | 
UACAUGAGGAUCACCCAUGUUUUGUCGUGUAUGGUAUUUAUCUAGGAUAUCAAUGUGUUUAUUUAUGAGAAGGAGAAUAUUAAU [JMF's solution 39] (Eterna round: R96, puzzle: Exclusion NG 3) | 40 nM | 31.8 nM | 35.4 nM |  |  | 
AGAAGUAAAUAAGGAUAUCCAUGGGAGAGUGAAGGAGAAGGUAUAAUGUAUUCCAAUGUACCCACUAGGAGUACAAGAUGUUGA [Default title] (Eterna round: R96, puzzle: Exclusion NG 1) | 47.9 nM | 4.55 nM | 23.1 nM |  |  | 
GCAUGGAAAGUGAGGAUAUACCACUGGAUACAGUGGUAGAAGGCACAUGAGGAUCACCCAUGUUUCUACCAUGC [Fiskers BMX 4 - 40] (puzzle: Brourd's mod of Exclusion 4) |  |  |  | 12.7 nM |  | 
CGAGCACGUGUAAGGAUAUGCUCGCUCUAUUUGGCGCAGAAGGUACAUGAGGAUCACCCAUGUAGCGACUUGGG [Eternabot (L2) Solution 7] (Eterna round: R97, puzzle: Brourd's mod of Exclusion 4) | 41.6 nM |  | 27.6 nM |  |  | 
CUUGGAGAGGUAGGAUAUUUAUAUUCACACUCUGAUUCUUGUACACAUGAGGAUCACCCAUGUAUAGAGAAGGACUGCCAAGAG [Eternabot solution 48] (Eterna round: R96, puzzle: Exclusion NG 2) | 21.6 nM | 17.2 nM | 21.3 nM |  |  | 
UCGGCGCGAGGAUAUGCGGUUCCUCCCUAGGGCCGGAGCGUACAUGAGGAUCACCCAUGUAGAAGGCGCGCCGC [Apr-15 SS2-35] (puzzle: Exclusion 2) |  |  |  | 11.2 nM |  | 
CGGCAUGUACAAGGAUAUCAGCACGUUUAGUGCUGAGAAGGUGUAACAUGAGGAUCACCCAUGUAGAUCAUUAACCGAUUAAUU [ENG1/9-A1] (Eterna round: R96, puzzle: Exclusion NG 1) | 128 nM | 48.1 nM | 59 nM |  |  | 
AUUGUUUUAGGAUAUACAUGAGGAUCACCCAUGUGUGCGAUGCGGAUCGGGAAAGCCUGUAGAAGGAAGACAUG [Eternabot (L1) Solution 74] (Eterna round: R97, puzzle: Exclusion 3) | 33.4 nM |  | 30.8 nM |  |  | 

Sequence | apparent KD of MS2 coat protein (input ligand: FMN 200 uM) | apparent KD of MS2 coat protein [1] | apparent KD of MS2 coat protein (input ligand: none) | apparent KD of MS2 coat protein [2] | apparent KD of MS2 coat protein [3] | apparent KD of MS2 coat protein [4]
GGUGCGUAUGUGAGGAUAUGCUGGUCCUUGGCUCGGCAGAAGGCACAUGAGGAUCACCCAUGUGGUGUCGUGCC [salish99_Bmod_ex4_056] (Eterna round: R96, puzzle: Brourd's mod of Exclusion 4) | 46 nM | 14.9 nM | 19.8 nM |  |  | 
AGUGUGUUAGGAUAUCGGAUAUGCUGGAGGAGGUGGAUUUACGAGAAGGAACAUGAGGAUCACCCAUGUAGGAG [JR_Exclu4_Sub048] (puzzle: Exclusion 4) |  |  |  | 36.2 nM |  | 
AGUCGGCGAGGAUAUACAUGAGGAUCACCCAUGUGAUAGAGUGCACGCGUACGUGUAUGUAGAAGGCGCUGACA [Mat - Exclusion 3 - Mod of JL D97] (puzzle: Exclusion 3) |  |  |  | 61.4 nM |  | 
AAAACGGGAGGAUAUCGUAUCGUACACAUGAGGAUCACCCAUGUCCGGUGCAUCCUCAUCCGAGAAGGCCCAUAAA [Inisrarier] (puzzle: Exclusion 5) |  |  |  | 31.4 nM | 25.8 nM | 25.9 nM
UAAAAGCGAGGAUAUACAUGAGGAUCACCCAUGUGGGCAAAGUUCGCUAAGGUACCUAGUAGAAGGCGCGAAAU [Digeanin] (Eterna round: R97, puzzle: Exclusion 3) | 450 nM |  | 63.3 nM |  |  | 
UUAAAGGCGGAGGAUAUGUAGGCUUUCGAGUCGACAGAAGGCCGCACAUGAGGAUCACCCAUGUGGUCCUCCAA [EX6 A.20] (Eterna round: R97, puzzle: Exclusion 6) | 219 nM |  | 51.8 nM |  |  | 
UACAUGAGGAUCACCCAUGUUUUGUCGUGUAUGGUAUUUAUCUAGGAUAUCAAUGUAAUUAUUUAUGAGAAGGAGAAUAUUAAU [JMF's solution 40] (Eterna round: R96, puzzle: Exclusion NG 3) | 41.2 nM | 36.1 nM | 44.7 nM |  |  | 
AGGGAUAAAGGAUAUACAUGAGGAUCACCCAUGUUGAGGAAGGUUAGAGGUGGCGAUAGUAGAAGGUUAGGUAG [JR_Exclu3_Sub081] (puzzle: Exclusion 3) |  |  |  | 77 nM |  | 
CGUCCACAUGAGGAUCACCCAUGUGAGGAUAUCUAGCACGCAGUAGUACUGUGACAUCGGAGAAGGCGUAGGGU [Eternabot (L2) Solution 96] (Eterna round: R97, puzzle: Exclusion 1) | 32.2 nM |  | 21.2 nM |  |  | 
UAUUUGUAAGGAUAUCUCGUCAUGGAGGAAACUCCAUGACGAGAGAAGGUACAUGAGGAUCACCCAUGUCUAUU [Mod of Fisker 23 - Jieux - Exclusion 4] (Eterna round: R97, puzzle: Exclusion 4) | 26.2 nM |  | 18.6 nM |  |  | 
CGGUGCUGAGGAUAUACAUGAGGAUCACCCAUGUGUUCCAGCUAGGUGACUGGCAGAUGUAGAAGGCGGUACUG [JL-ex3-3.38 Brourd mod] (puzzle: Exclusion 3) |  |  |  | 98.6 nM | 72.2 nM | 102 nM
GCCAGUGCAGGAUAUUCAAUAAUUCACAUGAGGAUCACCCAUGUCCAGCGAAAGCUGGAAGGAGAAGGGCACUGGC [Mat - Exclusion 5 - Eli mod - D85] (puzzle: Exclusion 5) |  |  |  | 12.8 nM | 10.2 nM | 14.6 nM
GAGGAGACAGGAUAUACAUGAGGAUCACCCAUGUGAGGAGGAGGAGAGAGGAGAAGGAGUAGAAGGGUCAGAGA [JR_Exclu3_Sub024] (puzzle: Exclusion 3) |  |  |  | 33.7 nM | 45.1 nM | 73.8 nM
GGUGAAGCAGGAUAUGUAUCGAUAUACAUGAGGAUCACCCAUGUCAUGUUUGAAUUGCAUAUAGAAGGGCUUCACC [Exclusion 5 (FMN-MS2 slide v.3)] (Eterna round: R97, puzzle: Exclusion 5) | 16.4 nM |  | 13.8 nM |  |  | 
AUGUGUAUAGUGAGGAUAUUGCCCAGGAAAUAGGGCAAGAAGGCACAUGAGGAUCACCCAUGUGGAUGUUCUGA [Eternabot (L2) Solution 85] (Eterna round: R97, puzzle: Brourd's mod of Exclusion 4) | 412 nM |  | 37.5 nM |  |  | 
AUCGUGCAGCUUUGCUGUACGAGUACAUGAGGAUCACCCAUGUAGGAUAUGGUACGCUUUGCGUGCUAGAAGGAUAUGAGAUUU [JL ENG3 1.50] (Eterna round: R96, puzzle: Exclusion NG 3) | 41.7 nM | 24.3 nM | 38.6 nM |  |  | 
GUCAGCUCGUCAGGAUAUACAUGAGGAUCACCCAUGUGGUCAAUAGCAGCUUCGGCUGCAUACAUGUAGAAGGGACGAGCUGAC [ENG2/7-B1] (Eterna round: R96, puzzle: Exclusion NG 2) | 18.8 nM | 6.88 nM | 78.2 nM |  |  | 

From the supplement of paper PMC9170038
